Reference: article PMC3247260

Biological target: K63-linked diUb (UniProt P0CG48)
Assay: ITC; USP13-UBA12 (1.25 mM stock) injected into K63-, K48-, linear diUb (0.1 mM) or monoUb (0.2 mM), 25 injections of 1.5 µL; 50 mM Tris, 150 mM NaCl, pH 7.5; 25°C

tandem UBA domains of USP13 (USP13-UBA12, residues 652-776) (from UniProt Q92995 652-776) (domain or fragment)
Kd: 1000 nM
